In the Human Domainome abundance scans (Beltran et al. 2025):
± gives the uncertainty stated by the source.

B1: Pyruvate dehydrogenase protein X component, mitochondrial, residues 181 to 227; numbered along this chain, O00330 (parent)
chain: RFRLSPAARNILEKHSLDASQGTATGPRGIFTKEDALKLVQLKQTGK

Variants of: B1
Experiment: abundance fitness (aPCA) (normalised: wild type 0, dead -1); higher = more abundant; growth selection in yeast, the domain comes from the species named
Details: Homo sapiens

Abundance fitness, by site and new letter:
K14: M -0.149 ± 0.094, Q 0 ± 0.075, N -0.05 ± 0.073, S -0.279 ± 0.054, T 0.049 ± 0.05, E 0.19 ± 0.067, I -0.165 ± 0.09, R -0.293 ± 0.053, P -0.055 ± 0.081, C -0.306 ± 0.056, F -0.146 ± 0.11, W -0.474 ± 0.064, A 0.008 ± 0.064, D -0.172 ± 0.058, Y -0.3 ± 0.1, H -0.164 ± 0.079, G -0.142 ± 0.044
F31: L -0.412 ± 0.046, K -0.423 ± 0.12, E -0.087 ± 0.071, H -0.222 ± 0.11, G -0.195 ± 0.072, C -0.236 ± 0.067, A -0.451 ± 0.087
H15: R -0.985 ± 0.077, G -0.255 ± 0.052, I -0.906 ± 0.16, K -0.42 ± 0.085, W -0.191 ± 0.082, Q -0.341 ± 0.05, A -0.276 ± 0.069, V -0.506 ± 0.053, T -0.361 ± 0.075, E -0.138 ± 0.064, N 0.019 ± 0.078, Y -0.176 ± 0.09, S -0.517 ± 0.075, F -0.294 ± 0.077, M -0.1 ± 0.082, D -0.283 ± 0.06, P -0.575 ± 0.072, L -0.813 ± 0.078
E13: W -0.841 ± 0.11, C -0.441 ± 0.052, Q -0.215 ± 0.1, L -0.225 ± 0.047, K -0.097 ± 0.094, R -0.242 ± 0.043, D -0.079 ± 0.058, I -0.224 ± 0.096, G -0.387 ± 0.054, T -0.428 ± 0.055, V -0.391 ± 0.046, F -0.612 ± 0.082, A -0.255 ± 0.063, H -0.3 ± 0.1, S -0.348 ± 0.057, P -0.564 ± 0.11, M -0.661 ± 0.13, N 0.1 ± 0.11
G26: L -0.516 ± 0.057, K -0.571 ± 0.055, C -0.903 ± 0.12, Q -0.483 ± 0.077, P -0.55 ± 0.076, F -0.642 ± 0.081, D -0.444 ± 0.056, E -0.539 ± 0.085, V -0.489 ± 0.043, A -0.603 ± 0.056, N -0.505 ± 0.096, H -0.46 ± 0.043, M -0.435 ± 0.069, S -0.608 ± 0.068, Y -0.8 ± 0.17, W -0.874 ± 0.057
P27: R -0.363 ± 0.046, S -0.213 ± 0.043, D -0.022 ± 0.07, C -0.323 ± 0.067, L -0.599 ± 0.069, Q -0.221 ± 0.056, F -0.655 ± 0.14, V -0.515 ± 0.058, I -0.547 ± 0.11, Y -0.689 ± 0.13, E -0.131 ± 0.059, G -0.491 ± 0.057, K -0.146 ± 0.063, T -0.167 ± 0.069, H -0.309 ± 0.058, W -0.682 ± 0.079, N -0.426 ± 0.059
Q21: P -0.453 ± 0.06, C -0.167 ± 0.059, W -0.223 ± 0.056, K -0.339 ± 0.045, L -0.051 ± 0.046, Y -0.481 ± 0.14, T -0.427 ± 0.074, M -0.084 ± 0.051, G -0.101 ± 0.048, E 0.041 ± 0.068, D -0.194 ± 0.068, V -0.31 ± 0.049, R -0.44 ± 0.058, S -0.158 ± 0.058, F -0.493 ± 0.085, N -0.516 ± 0.056
I30: W -0.229 ± 0.1, V -0.263 ± 0.078, S -0.145 ± 0.065, G -0.271 ± 0.047, Q -0.178 ± 0.072, R -0.413 ± 0.067, N -0.268 ± 0.061, T 0.068 ± 0.083, D -0.087 ± 0.066, F -0.152 ± 0.05, L 0.116 ± 0.04, P -0.363 ± 0.08, A -0.105 ± 0.054, C -0.234 ± 0.075, H -0.359 ± 0.15, E 0.092 ± 0.083, Y -0.292 ± 0.12, M 0.137 ± 0.099
S16: C -0.215 ± 0.08, F -0.416 ± 0.084, E 0.035 ± 0.051, A -0.186 ± 0.063, Y -0.385 ± 0.066, K 0.061 ± 0.07, T -0.109 ± 0.05, L -0.667 ± 0.047, W -0.699 ± 0.051, V -0.613 ± 0.049, P -0.281 ± 0.057, D 0.078 ± 0.065, N 0.018 ± 0.087, G 0.244 ± 0.043, I -0.894 ± 0.091, M -0.708 ± 0.089, H -0.026 ± 0.079, Q 0.069 ± 0.085
R28: L -0.161 ± 0.045, M -0.071 ± 0.072, I -0.936 ± 0.15, W -0.255 ± 0.057, N 0.285 ± 0.088, A -0.119 ± 0.06, D 0.259 ± 0.1, T -0.281 ± 0.063, Q -0.314 ± 0.11, V -0.456 ± 0.068, Y -0.03 ± 0.064, K 0.033 ± 0.071, S -0.146 ± 0.072, H -0.202 ± 0.11, C -0.072 ± 0.051, E 0.06 ± 0.09, P -0.408 ± 0.096, F -0.085 ± 0.073
L12: N -0.319 ± 0.086, I -0.121 ± 0.062, S -0.361 ± 0.053, P -0.073 ± 0.062, Q -0.199 ± 0.061, W -0.765 ± 0.11, H -0.504 ± 0.11, K -0.481 ± 0.11, F -0.584 ± 0.13, D 0.018 ± 0.076, T -0.181 ± 0.057, Y -1.16 ± 0.3, R -0.422 ± 0.051, G -0.332 ± 0.048, M -0.263 ± 0.074
D18: V -0.625 ± 0.054, R -0.707 ± 0.056, Q -0.113 ± 0.067, K 0.086 ± 0.088, T -0.256 ± 0.054, G -0.598 ± 0.05, W -1.06 ± 0.14, N 0.028 ± 0.098, C -0.331 ± 0.048, A -0.591 ± 0.11, S -0.393 ± 0.058, P -0.815 ± 0.14, F -0.92 ± 0.12, E -0.815 ± 0.13, Y -0.605 ± 0.14, I -0.336 ± 0.1, M -0.394 ± 0.058
A24: G -0.331 ± 0.068, V -0.476 ± 0.055, C -0.473 ± 0.089, P -0.191 ± 0.069, Y -1.07 ± 0.25, N -0.31 ± 0.07, K -0.638 ± 0.13, S -0.271 ± 0.059, D -0.661 ± 0.079, T -0.423 ± 0.051, F -0.667 ± 0.086, E -0.333 ± 0.082, L -0.532 ± 0.051, H -0.454 ± 0.053, Q -0.597 ± 0.11
G29: Y -1.01 ± 0.18, V -0.807 ± 0.067, P -0.569 ± 0.071, C -0.706 ± 0.12, I -0.349 ± 0.11, E -0.226 ± 0.063, Q -0.418 ± 0.051, S -0.435 ± 0.069, N -0.395 ± 0.11, F -1.05 ± 0.28, L -0.609 ± 0.049, H -0.773 ± 0.15, R -0.526 ± 0.052, W -0.892 ± 0.057, T -0.788 ± 0.082, M -0.447 ± 0.1, D -0.101 ± 0.11
S20: I -0.655 ± 0.17, Y -0.932 ± 0.18, C -0.305 ± 0.094, T -0.109 ± 0.051, D 0.087 ± 0.082, E 0.034 ± 0.052, F -0.545 ± 0.068, Q -0.242 ± 0.067, M -0.18 ± 0.075, G -0.192 ± 0.053, A -0.056 ± 0.045, P -0.257 ± 0.061, R -0.284 ± 0.047, W -0.788 ± 0.075, V -0.369 ± 0.043, L -0.345 ± 0.049, K -0.108 ± 0.046
G22: C -0.419 ± 0.081, N -0.648 ± 0.078, Q -0.479 ± 0.048, Y -0.623 ± 0.08, L -0.475 ± 0.047, F -0.679 ± 0.053, K -0.633 ± 0.099, H -0.524 ± 0.11, A -0.337 ± 0.067, T -0.554 ± 0.065, R -0.723 ± 0.07, I -0.446 ± 0.058, P -0.64 ± 0.071, D -0.552 ± 0.097, M -0.369 ± 0.051, W -0.712 ± 0.074, E -0.43 ± 0.078, V -0.378 ± 0.06, S -0.619 ± 0.066
A19: G -0.136 ± 0.054, H -0.323 ± 0.12, Y -0.236 ± 0.15, W -0.362 ± 0.044, S -0.242 ± 0.066, P 0.249 ± 0.06, Q -0.343 ± 0.07, M -0.074 ± 0.049, V -0.227 ± 0.053, D -0.355 ± 0.12, C -0.186 ± 0.074, I -0.295 ± 0.16, R -0.362 ± 0.058, K -0.602 ± 0.058, T -0.379 ± 0.048, F -0.59 ± 0.14, L -0.412 ± 0.053
T23: K -0.062 ± 0.075, M -0.231 ± 0.054, F -0.36 ± 0.072, I -0.074 ± 0.089, D -0.058 ± 0.079, W -0.424 ± 0.073, E 0.067 ± 0.055, L -0.258 ± 0.06, H -0.326 ± 0.087, G -0.326 ± 0.045, N -0.195 ± 0.066, C -0.234 ± 0.056, Q -0.24 ± 0.087, Y -0.309 ± 0.071, V 0.006 ± 0.058, R -0.237 ± 0.045, S -0.138 ± 0.044, P -0.442 ± 0.064
L17: F -0.635 ± 0.085, C -0.244 ± 0.11, G -0.575 ± 0.05, N -0.687 ± 0.066, R -0.856 ± 0.082, Y -0.691 ± 0.17, H -0.308 ± 0.12, E -0.33 ± 0.068, I -0.22 ± 0.15, P -0.07 ± 0.081, K -0.509 ± 0.076, Q -0.483 ± 0.12, W -0.57 ± 0.055, D -0.534 ± 0.14, A -0.506 ± 0.056, T -0.31 ± 0.092, V -0.331 ± 0.053, M -0.134 ± 0.098, S -0.486 ± 0.057
T25: L -0.519 ± 0.048, W -1.06 ± 0.12, P -0.559 ± 0.064, K -0.414 ± 0.1, Y -0.86 ± 0.13, M -0.423 ± 0.072, H -0.58 ± 0.15, I -0.668 ± 0.13, V -0.476 ± 0.077, C -0.423 ± 0.095, R -0.563 ± 0.053, Q -0.522 ± 0.052, D -0.582 ± 0.094, F -0.697 ± 0.082, G -0.445 ± 0.046, A -0.566 ± 0.072, E -0.765 ± 0.11
